First the molecules themselves.
B1: dog albumin (natural protein, UniProt P49822 25-608, looked up)
chain: EAYKSEIAHRYNDLGEEHFRGLVLVAFSQYLQQCPFEDHVKLAKEVTEFAKACAAEESGANCDKSLHTLFGDKLCTVASLRDKYGDMADCCEKQEPDRNECFLAHKDDNPGFPPLVAPEPDALCAAFQDNEQLFLGKYLYEIARRHPYFYAPELLYYAQQYKGVFAECCQAADKAACLGPKIEALREKVLLSSAKERFKCASLQKFGDRAFKAWSVARLSQRFPKADFAEISKVVTDLTKVHKECCHGDLLECADDRADLAKYMCENQDSISTKLKECCDKPVLEKSQCLAEVERDELPGDLPSLAADFVEDKEVCKNYQEAKDVFLGTFLYEYARRHPEYSVSLLLRLAKEYEATLEKCCATDDPPTCYAKVLDEFKPLVDEPQNLVKTNCELFEKLGEYGFQNALLVRYTKKAPQVSTPTLVEVSRKLGKVGTKCCKKPESERMSCAEDFLSVVLNRLCVLHEKTPVSERVTKCCSESLVNRRPCFSGLEVDETYVPKEFNAETFTFHADLCTLPEAEKQVKKQTALVELLKHKPKATDEQLKTVMGDFGAFVEKCCAAENKEGCFSEEGPKLVAAAQAALV
B2: monkey albumin (natural protein, UniProt A2V9Z4 25-608, looked up)
chain: DTHKSEVAHRFKDLGEEHFKGLVLVAFSQYLQQCPFEEHVKLVNEVTEFAKTCVADESAENCDKSLHTLFGDKLCTVATLRETYGEMADCCAKQEPERNECFLQHKDDNPNLPPLVRPEVDVMCTAFHDNEATFLKKYLYEVARRHPYFYAPELLFFAARYKAAFAECCQAADKAACLLPKLDELRDEGKASSAKQRLKCASLQKFGDRAFKAWAVARLSQKFPKAEFAEVSKLVTDLTKVHTECCHGDLLECADDRADLAKYMCENQDSISSKLKECCDKPLLEKSHCLAEVENDEMPADLPSLAADYVESKDVCKNYAEAKDVFLGMFLYEYARRHPDYSVMLLLRLAKAYEATLEKCCAAADPHECYAKVFDEFQPLVEEPQNLVKQNCELFEQLGEYKFQNALLVRYTKKVPQVSTPTLVEVSRNLGKVGAKCCKLPEAKRMPCAEDYLSVVLNRLCVLHEKTPVSEKVTKCCTESLVNRRPCFSALELDEAYVPKAFNAETFTFHADMCTLSEKEKQVKKQTALVELVKHKPKATKEQLKGVMDNFAAFVEKCCKADDKEACFAEEGPKFVAASQAALA
B3: rat albumin (natural protein, UniProt P02770 25-608, looked up)
chain: EAHKSEIAHRFKDLGEQHFKGLVLIAFSQYLQKCPYEEHIKLVQEVTDFAKTCVADENAENCDKSIHTLFGDKLCAIPKLRDNYGELADCCAKQEPERNECFLQHKDDNPNLPPFQRPEAEAMCTSFQENPTSFLGHYLHEVARRHPYFYAPELLYYAEKYNEVLTQCCTESDKAACLTPKLDAVKEKALVAAVRQRMKCSSMQRFGERAFKAWAVARMSQRFPNAEFAEITKLATDVTKINKECCHGDLLECADDRAELAKYMCENQATISSKLQACCDKPVLQKSQCLAEIEHDNIPADLPSIAADFVEDKEVCKNYAEAKDVFLGTFLYEYSRRHPDYSVSLLLRLAKKYEATLEKCCAEGDPPACYGTVLAEFQPLVEEPKNLVKTNCELYEKLGEYGFQNAVLVRYTQKAPQVSTPTLVEAARNLGRVGTKCCTLPEAQRLPCVEDYLSAILNRLCVLHEKTPVSEKVTKCCSGSLVERRPCFSALTVDETYVPKEFKAETFTFHSDICTLPDKEKQIKKQTALAELVKHKPKATEDQLKTVMGDFAQFVDKCCKAADKDNCFATEGPNLVARSKEALA

The assay has as its target T1, [Leu^14]exenatide-ABD (leucine substituted for methionine at position 14 (stands in the printed …, C-terminus -OH (Table 1))).
T1 construct: numbers count on: the exenatide peptide; Gly-Gly-Ser tri-peptide linker; 88 residue peptide; also called ABD fused exenatide; source: synthetic peptide (solid phase, reverse-phase HPLC)
As to the kind of experiment: SPR; BioRad ProteOn XPR36, GLC sensor chip, 25°C; albumins amine-coupled (2000-5000 RU), peptides flowed over at 3 concentrations in duplicate; 10 mM HEPES pH 7.4, 150 mM NaCl, 3 mM EDTA, 0.005% Tween-20, 0.2 mg/ml ovalbumin; highest concentration dissociated for 3 hours; 1:1 (Langmuir) model with correction for mass transfer. The conditions noted are these: both partners purified. For orientation: In SPR one partner is held on a chip, and binding of the other changes the refractive index at the surface.
Broadly, the Kd is the concentration at which binding is half-saturated. Consider B1, for which the Kd was 0.0981 nM.

For B2, the Kd is 0.0402 nM.

For B3, the Kd was 0.0082 nM.

Values taken from article PMC3913652 (PLoS ONE, 2014).
